Bridges are numbered along the chain shown (N, C = ends). Where no end group is shown, it is not given here. [ ]: non-standard residue; d: D form. The star is where a group is joined. Acetyl(2-(4-imidazolyl)) = O=C(Cc1c[nH]cn1)*; Aib = CC(C)(N)C(=O)O

Experiment in all cases: cell-based or functional assay
Assay [1] addresses T1, human GIP receptor (human, UniProt P48546 22-466).
T1 sequence (looked up): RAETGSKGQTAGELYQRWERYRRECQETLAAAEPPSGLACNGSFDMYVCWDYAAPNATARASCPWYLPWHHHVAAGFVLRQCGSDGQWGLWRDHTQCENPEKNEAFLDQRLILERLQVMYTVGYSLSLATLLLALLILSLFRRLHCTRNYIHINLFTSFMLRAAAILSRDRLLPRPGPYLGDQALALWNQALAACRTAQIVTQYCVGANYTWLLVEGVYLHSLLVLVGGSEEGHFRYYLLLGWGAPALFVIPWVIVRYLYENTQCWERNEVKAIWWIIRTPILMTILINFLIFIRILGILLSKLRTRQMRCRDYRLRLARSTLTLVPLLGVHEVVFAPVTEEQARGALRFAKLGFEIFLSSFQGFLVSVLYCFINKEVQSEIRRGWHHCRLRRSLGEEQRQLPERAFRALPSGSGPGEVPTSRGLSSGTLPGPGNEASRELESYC

The target in assay [2] is human GLP-1 receptor (human, UniProt P43220 24-463).
The target of assay [3] is human GCG receptor (human, UniProt P47871 26-477).
human GCG receptor, sequence (P47871 26-477): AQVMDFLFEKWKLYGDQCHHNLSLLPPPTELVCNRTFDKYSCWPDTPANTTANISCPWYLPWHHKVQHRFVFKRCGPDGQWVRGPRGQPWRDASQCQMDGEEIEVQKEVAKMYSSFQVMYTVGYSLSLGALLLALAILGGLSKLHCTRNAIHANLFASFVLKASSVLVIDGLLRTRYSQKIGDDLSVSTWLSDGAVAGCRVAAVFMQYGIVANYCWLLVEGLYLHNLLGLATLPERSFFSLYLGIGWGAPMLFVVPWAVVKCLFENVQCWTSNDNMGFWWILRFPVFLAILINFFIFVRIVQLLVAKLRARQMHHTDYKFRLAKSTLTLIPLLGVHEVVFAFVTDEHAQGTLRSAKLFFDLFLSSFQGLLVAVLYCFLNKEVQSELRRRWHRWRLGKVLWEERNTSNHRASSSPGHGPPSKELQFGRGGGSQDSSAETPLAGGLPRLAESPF

With {Acetyl(2-(4-imidazolyl))}-[Aib]QGTFTSDYSKYLDEKRQKEFVQWLLNTKC (bridge 15-19) [triple agonist of SEQ ID NO: 88], the “In vitro activity (%) vs. GIP, cAMP EC50” value in assay [1] is less than 0.1%. Besides, the “In vitro activity (%) vs. GLP-1, cAMP EC50” value in assay [2] came to 9.6%. Moreover, the “In vitro activity (%) vs. Glucagon, cAMP EC50” value in assay [3] was determined as 0.3%.
Consider Y[Aib]QGTFTSDYSKYLDEKRAKDFVQWLLDHHPSSGQPPPSC (bridge 16-20) [triple agonist of SEQ ID NO: 76], for which the “In vitro activity (%) vs. GIP, cAMP EC50” value in assay [1] was 11.7%. In addition, in assay [2], the “In vitro activity (%) vs. GLP-1, cAMP EC50” value worked out at 10.3%. In assay [3], the “In vitro activity (%) vs. Glucagon, cAMP EC50” value was 47.6%.
The matching figures for {Acetyl(2-(4-imidazolyl))}-[Aib]EGTFTSDYSIAMDEIHQKDFVNWLLAQKC (bridge 15-19) [triple agonist of SEQ ID NO: 90]: less than 0.1%, 7.4% and less than 0.1%.
Regarding H[Aib]QGTFTSDVSKYLDGQAAQEFVAWLLKGC [triple agonist of SEQ ID NO: 8], the “In vitro activity (%) vs. GIP, cAMP EC50” value in assay [1] was less than 0.1%. Further, the “In vitro activity (%) vs. GLP-1, cAMP EC50” value in assay [2] came out at 14.2%. Besides, the “In vitro activity (%) vs. Glucagon, cAMP EC50” value in assay [3] turned out to be 0.1%.
Taken in the same sequence, the figures for {Acetyl(2-(4-imidazolyl))}-[Aib]QGTFTSDYSIAMDEIHQKDFVNWLLNTC (bridge 15-19) [triple agonist of SEQ ID NO: 87] were less than 0.1%, 0.9% and less than 0.1%.
As to Y[Aib]QGTFTSDCSKYLDERAAKDFVQWLLDHHPSSGQPPPS (bridge 16-20; ends not checked) [triple agonist of SEQ ID NO: 72], the “In vitro activity (%) vs. GIP, cAMP EC50” value in assay [1] turned out to be 1.6%. Moreover, the “In vitro activity (%) vs. GLP-1, cAMP EC50” value in assay [2] was found to be 11.5%. Moreover, in assay [3], the “In vitro activity (%) vs. Glucagon, cAMP EC50” value worked out at 1%.
In the case of H[Aib]QGTFTSDYSKYLDEKRQKEFVQWLLDTKC (bridge 16-20) [triple agonist of SEQ ID NO: 78], in assay [1], the “In vitro activity (%) vs. GIP, cAMP EC50” value was 0.12%. In assay [2], the “In vitro activity (%) vs. GLP-1, cAMP EC50” value turned out to be 51%. The “In vitro activity (%) vs. Glucagon, cAMP EC50” value in assay [3] is 14%.
Regarding Y[Aib]QGTFTSDYSKCLDEKRAKDFVQWLLDHHPSSGQPPPS (bridge 16-20; ends not checked) [triple agonist of SEQ ID NO: 70], the “In vitro activity (%) vs. GIP, cAMP EC50” value in assay [1] turned out to be 64.4%. The “In vitro activity (%) vs. GLP-1, cAMP EC50” value in assay [2] was 15.1%. The “In vitro activity (%) vs. Glucagon, cAMP EC50” value in assay [3] was found to be 71.3%.
The matching figures for [Acetyl(2-(4-imidazolyl))][Aib]QGTFTSDYSIAMDEIHQKDFVNWLLAQC (bridge 16-20) [triple agonist of SEQ ID NO: 85]: 0.3%, 4.3% and less than 0.1%.
For Y[Aib]QGTFTSDYSKYLDEKAAKDFVQWLLDHHPSSGQPPPSC (bridge 16-20) [triple agonist of SEQ ID NO: 77], the “In vitro activity (%) vs. GIP, cAMP EC50” value in assay [1] amounted to 35.5%. Further, the “In vitro activity (%) vs. GLP-1, cAMP EC50” value in assay [2] worked out at 38.7%. The “In vitro activity (%) vs. Glucagon, cAMP EC50” value in assay [3] is 12.2%.
The matching figures for Y[Aib]QGTFTSDYSKYLDERACKDFVQWLLDHHPSSGQPPPS (bridge 16-20; ends not checked) [triple agonist of SEQ ID NO: 71]: 94.7%, 90.1% and 12.7%.
The matching figures for H[Aib]QGTFTSDVSKYLDGQAAQEFVAWLLAGC [triple agonist of SEQ ID NO: 9]: less than 0.1%, 32.1% and 0.13%.
Taken in the same sequence, the figures for {Acetyl(2-(4-imidazolyl))}-[Aib]QGTFTSDYSKYLDEKRQKEFVQWLLNTC (bridge 15-19) [triple agonist of SEQ ID NO: 81] were less than 0.1%, 7.8% and 0.3%.

(Values after patent US20220088148A1 (HANMI PHARM, published 2022).)
